One assay has as its target T1, cyclin A/CDK2 (Homo sapiens, UniProt P24941).
T1 construct: made in house; host or cells: Sf9 insect cells (Spodoptera frugiperda), baculovirus co-infection
The assay can be described thus: In vitro kinase assay of cyclin A/CDK2 on biotinylated p27KIP1 substrate peptides (Michaelis-Menten kinetics). To be noted: for Relative rate (maximal relative rate of phosphoryl transfer) / Km: 50 μM ATP and 1 μCi 32P-γ-ATP, 10 min, 30°C, 50 mM Tris-HCl pH 7.5, 10 mM MgCl2, SAM2 membrane, scintillation counting, Michaelis-Menten fit (GraphPad Prism), Fig. 5: mean values ± SD of 5 experiments performed in duplicates; for Km: peptide substrate. It counts as biochemical. On the procedure: Fig. 5 Analysis of cyclin A/CDK2 kinase activity on p27^KIP1 substrate peptides. Cyclin A/CDK2 Kinase purified from Sf9 cells was incubated with increasing concentrations of p27^KIP1 wild type and the R194A mutant peptide as indicated. Phosphorylation of the peptides was monitored after immobilisation on SAM2 membrane by scintillation counting and analysis by GraphPad Prism software. Shown are mean values ± SD of 5 experiments performed in duplicates
Human cyclin A/CDK2 complexes were expressed in SF9 insect cells (Spodoptera frugiperda) upon infection with recombinant baculo viruses encoding either cyclin A or CDK2. The complex was purified using the GST tag of cyclin A [49]. In vitro kinase assays of cyclin A/CDK2 were performed in kinase buffer (50 mM Tris-HCl, pH 7.5, 10 mM MgCl2, 1 mM EGTA, 1 mM DTT, 40 mM α-glycero-phosphate, 20 mM p-nitrophenylphosphate, 0.1 mM sodium vanadate, 0.01% BriJ 35) containing 50 μM ATP and 1 μCi ^32P-γ-ATP for 10 min at 30°C in the presence of increasing amount of biotinylated p27^KIP1 wild type or R194A (an arginine to alanine substitution at position 194) peptides as substrates. The assays were terminated by adding 12.5 μl 7.5 M guanidine hydrochloride. The peptides were immobilized on SAM2 Biotin Capture Membranes (Promega), extensively washed as described in the manufacturer’s protocol, and then monitored for radioactivity in a liquid scintillation counter to calculate the specific kinase activity. Kinetic parameters were determined with GraphPad Prism software built-in “Enzyme kinetic Michaelis-Menten”. The sequence of the p27^KIP1 wild type peptide corresponds to amino acids 180 to 194. The peptides were synthesized with a biotin-PEG-20-linker and purified by HPLC at the Peptide Specialty Laboratories, Heidelberg (Germany).

Assay [1] deals with Human cyclin A/CDK2 complex (human) (UniProt P20248).

Turning to “N180AGSVEQTPKKPGLA [Peptide R194A, p27KIP1 peptide with an arginine to alanine substitution at position 194]”, at cyclin A/CDK2, the “Relative rate (maximal relative rate of phosphoryl transfer)” value is given as 1.11 pmol/min and the Km turned out to be 81.4 µM.

In the case of “N180AGSVEQTPKKPGLR [wt, p27KIP1 wild type peptide corresponding to amino acids 180 to 194]”, at cyclin A/CDK2, the “Relative rate (maximal relative rate of phosphoryl transfer)” value came out at 2.21 pmol/min and the Km is 93.6 µM. Also, the “turnover rate of the wt peptide relative to the R194A mutant peptide” value on cyclin A/CDK2 (wt versus R194A, in words) is given as “twice as high”.

“p27^KIP1 R194A peptide (amino acids 180 to 194)”: in assay [1], the Km of peptide phosphorylation by cyclin A/CDK2, in vitro kinase assay (32P-γ-ATP, 50 μM ATP, 10 min, 30°C) turned out to be 81.4 µM; the Relative rate/Km of peptide phosphorylation by cyclin A/CDK2, in vitro kinase assay stood at 0.0135; the maximal relative rate of phosphoryl transfer by cyclin A/CDK2, in vitro kinase assay is 1.11 pmol/min.

Turning to “p27^KIP1 wild-type peptide (amino acids 180 to 194)”, in assay [1], the Km of peptide phosphorylation by cyclin A/CDK2, in vitro kinase assay (32P-γ-ATP, 50 μM ATP, 10 min, 30°C) stood at 93.6 µM; the Relative rate/Km of peptide phosphorylation by cyclin A/CDK2, in vitro kinase assay turned out to be 0.0195; the maximal relative rate of phosphoryl transfer by cyclin A/CDK2, in vitro kinase assay came out at 2.21 pmol/min.

The Km is the substrate concentration at which the rate is half of its maximum.

The record behind these values is publication PMC5217639, “Structural prediction of the interaction of the tumor suppressor p27^KIP1 with cyclin A/CDK2 identifies a novel catalytically relevant determinant” (BMC Bioinformatics, 2017).
